Results published in the nanobody polyreactivity screen of Harvey et al. (2022).

Assay: yeast display, Sf9 membrane polyspecificity reagent, FACS + sequencing; frameworks hold sequencing errors
Summary of the method: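 In a synthetic yeast display library (Saccharomyces cerevisiae BJ5465), nanobody expression was induced with galactose for 36–48 hours. FACS gates were set low and high (top ~1%) using anti-HA fluorescence for expression and streptavidin fluorescence for binding of the Sf9 membrane reagent. Each polyreactivity label is drawn from the gate of origin.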

| Sequence | polyreactivity (PSR sort gate) |
| --- | --- |
| QVQLVESGGGLVQAGGSLRLSCAASGRTSLGNAMGWYRQAPGKERELVAAISGSGGSTYYADSVKGRFTISRDNAKNTVYLQMNSLKPEDTAVYYCNKKLYGYQHYYWYYYWGQGTQVTVSS | high polyreactivity |
| QVQLEESGGGLVQAGGSLPLSCAASGFIFGRYAMGWYRQAPGKEREFVASISWSGGSTYYADSVKGRFTISRDNAKNTVYLQMNSLKPEDTAVYYCAAYVRKDRSRGLYGYWGQGTQVTVSS | high polyreactivity |
| QVQLVESGGGLVQAGGSLRLSCAASGSIFGYYAMGWYRQAPGKERELVASITRSGDTTYYADSVKGRFTISRDNAKNTVYLQMNSLKPEDTAVYYCAARRWRWYYDGFVRMDYWGQGTQVTVSS | high polyreactivity |
| QVQLVESGGGLVQAGGSLRLSCAASGFTFYTYVMGWYIQAPGKERELVAAITSGVYTNYADSVKGRFTISRDNAKNTVDLQMKSLKPEDTAVYYCNKDVRQAYRWYDSWGQDTQVTVSS | low polyreactivity |
| QVQLVESGGGLVQAGGSLRVSCAASGSSFTYNAMGWYRQAPGKERELVASINSRGGTTYYADSVKGRFTISRDNAKNTVYFQMNSLKPEDTAVYYCATDVYRLGEYDYWGQGTQVTVSS | low polyreactivity |
| QVQLVESGGGLVQAGGSLRLSCAASGSTFNIYVMGSYREPPGKERELVAAITTSGRTYYADSVKGRFTISRDNAKNTVYLQMNSLKPEDNAVYYCAAATGTYGRGGYYWGQGTQVTVSS | high polyreactivity |
| QVPLVESGGGLVQAGGSLRISCAASGSILQYYALGWYRQAPGKERELVASISSSSGSTYYADSVKGRFTISRDNAKNTVYLQMNSLKPEDTAVYYCNARGWTLAADFGYWGQATQVTVSS | low polyreactivity |
| QVQLVESGGGLVQAGGSLRLSCAASGLIFSCNAMGWYRQAPGKERELVASISYSGGRTYYADSVKGRFTISRDNAKNTVYLQMNSLKPEDTAVYYCAADTNATTDPEMDYWGQGTQVTVSS | low polyreactivity |
| QVQLVESGGGLVQAGGSLRLSCAASGSIFGYNAMGGYRHAPGKEREFVAAINSGGSTYYADSVKGRFTISRDNAKITVYLQLNSLKPEDTAVYYCRRRNVYSTRRYEYWGQGTQVTVSS | high polyreactivity |
| QVQLVESGGGLVEAGGSLRLSCAASGRIFRYNAMGWYRQAPGKEWELVAAITASGGRTYYADSVKGRFTISRDNAKNTVYLQMNSLKPDDTAVYYCAATAFDKLKVWYSYWRQGTQVTVSS | high polyreactivity |
| QVQLVESGGGLVQAGGSLRLSCAASGIIFYRYAMGWYRQAPGKERELVAAISTRGGSTYYADSVKGRFTISRDNAKYTVYLHMNSLKPEDTAVYYCAAEWLRYLHDYWGQGTQVTVSS | high polyreactivity |
| QVQLVESGGGLVQAGGSLRLSCAASGRILLYNAMGWYRQAPGKERELVAAISRSGGYTYYADSVNWRFTISRDNAKNTVYLQMNSLKPEDTAVYYCAAQHGYPRYYYWGQGTQVTVSS | high polyreactivity |
| QVQLQESGGGLVQAGGSLRLGCAASGNISDAGYMGWYRQAPGKEREFVAAIAAGSNTNYADSVKGRFTISRDNAKNTVYLQMNSLKPEDTAVFYCAVASYARVQYQYWGQGTQVTVNS | low polyreactivity |
| QVQLVESGGGLVQAGGSLRLSCAASGSTFRYYAMGWYRQAPGKERELVAAITQSGGITYYADSVKGRFTISRDNAKNTVYLQMNSLKPEDTAVYYCAKRYYVDYDYWGQGTHVTVSS | low polyreactivity |
| QVQLVESGGGLVQAGGSLRLSCAASGRIFVRNAMGWYRQAPGKERELVAAITTGGRTYYADSVKGRFTISRDNAKNTVYVQMNSVKPEDTAVYYCAATGDRKGYKYIYSDTNDYWGQGTQVTVSS | low polyreactivity |
| QVQLVESGGGLVQAGGSLRLSCAASGITFNYYAKGSYRQAPGKERELVATINRSGGTTYYADSVKGRFTISRDNAKNTVYLQMNSLKPAVTAVYYCGALSKTRGGYWGQGTQVTVSS | high polyreactivity |
| HVQLVESGGGLVQAGGSLRLSCAASGRTFVVNAMGWYRQAPGTEREFVAAISYRGDSTYYAVSVKGRFTFSRDNSKNTVYLQMNSLKPEDTAVYYCAARVLGPGRRYYYWGQGTQVTVSS | high polyreactivity |
| QVQLEESGGGLVQAGGSLRLSCAAYGSIFSPYAMGWYRHAPGKERELVAAISGRGTSTYYADSVKGRFTISRDNAKNTVDLQMNTLKPEDTEVYYCAAVSYGRSGYDYWGQGTQVTVSS | high polyreactivity |
| QVQLVESGGGLVQAGGSIRLTCTPSGIIFGTYAMGWYIQAPGKERELVAAISSSGVSTYYADSVKGRFTISRDNAKNTVYLQMNSLKPEDTAVYYCNARGSNGRSDYDYWGQCTQVTVSS | high polyreactivity |
| QVQLVESGGGLVQAGGSLRLSCAASGSTLYAYVMGWYRQAPGKERELVATISWSGGRTYYADSVKGRFTISRDNAKNTVYLQMNSLKPEDTAVYYCNARRRYSYVSRKFDYWGQGTQVTVSS | high polyreactivity |
| QVQLVESGVGLVQAGGSLRLTCAASGSIFTAYPMGSYRQAPGKERELVAAISRSGGRTYYADSVKGRFTISRDNAQITVNFQFNSLKPEDTAVYNCAAASRSTNYNYYYWGLGTQVTVSS | high polyreactivity |
| QVQLVESGGGLVQAGGSLRLSCAASGRIFFNAMGWYRQAPGKEREFVAAIRTSGGTTYYADSVKGRFTISRDNAKNTVYLQMNSLKPEDTAVYYCAAWRWYYPVRNRAQYVRGDYWGQGTQVTVSS | high polyreactivity |

| Sequence | polyreactivity (PSR sort gate) |
| --- | --- |
| QVQLVESGGGLVQAGGSLRLSCAASGITFTYYARGWYRQAPGKEMELVAAISWSGGSTYYADSVKGRFTISRDNAKNTVYLQMNSLKPEDTAVYYCAATFSRFAYYYWGQGTQVTVSS | high polyreactivity |
| QVQLVESGGGLVQAGGSLRLSCAASGSTFWYNAMGWYRQAPGKERELVASITLSGARTYYADSVKGRFTISRDNAKNTVYLQMNSLKPEDTAVYYCAKRTGRVKYYYWGQGTQVTVSS | high polyreactivity |
| QVQLVESGGGLLQAGGSLRLSCADSGSTFGANSLRWYIQAPGKEREFVAAISGSGTTTYYADSVKGRFTISRDNAKNTFYLQMHRLKPEDTAVYYCDKTRIAHWLEYWGQGTQVTVSS | low polyreactivity |
| QVQLVESGGGLVQAGGSLRLSCAASGYIFSGYARGWYRKAPGKERELVAAISSNGGSTYYADSVKGRFTISRDNANNTVYVQMNSLKPEDTAVYYCNRGLAARVGRGDYWGQGTQVTVSS | low polyreactivity |
| QVQLVESGGGLVQAGGSLSLSCPASGRIFRWNAMGWYRQAPGKEREFVAAISWSGGSTYYADSVKGRFTISRDNAKNTVYLQMNSLKPEDTAVYYCNKVGYYGVGTSQEFDYWGQGTQVTVSS | high polyreactivity |
| QVQLVESGGGLVQAGGSLRLSCAASGRILYYYDMGWYRQAPGKERELVARIGGTYYADSVKGRFTISRDNAKNTVYLQMNSLKPEDTAVYYCAAEYGYDFFRSYQEYGYWGQGTQVTVSS | low polyreactivity |
| QVQLEESGGGLVQAGGSLRLSCAASGITFVDYDMGWYRQATGKERELVAAITTGSSTYYADSVKGRFTISRDNAKNTVYLQMNSLKPEDTAVYYCARDLEYDYYQQWSYGYWGQGTQVTVSS | low polyreactivity |
| QVQLVESGGGLVQAGGSLRLSCAASGNTLAANAMGWYRQAPGKERELVAAITYSGGSTYYADSVKGRFTISRDNSKNTVYLQMNSLKPLDTAVYYCAAEGYYSNYHYWGQGTQVTVSW | low polyreactivity |
| QVQLVESGGGLVQAGGSLRLSCAASGFIFVPYAMGWYRQAPGKERELVARITWSGGRTYYADSVKGRFTISRDNAKNTVYLQMNSLKPEDTAVYYCNADVYGFDYWGQGTQVTVSS | high polyreactivity |
| QVQLVESGGGLVQAGGSLRLSCAASGSIFSSYAMGWYRQAPGKERELVAAISSSGDSTYADSVKGRFTISRDNAKNTVYLQMNSLKPEDTAVYYCAVGGAGSDDYWGQGTQVTVSS | low polyreactivity |
| QVQLVESGGGLVQAGGSLRLSCAASGFTFRSNAMGWYRQAPGKARELVAAISYSGDSTYYADSVKGRFTISRDTAKNTVYLQMNSLKPEDTAVYYCAADGYDQWGRVGVYLIWTSYDYWGQGTQVTVSS | high polyreactivity |
| QVQLVESGGGLVQAGGSLRLSCAASGITFPGTVMGWYRQAPGKERELVAAISTSGGSTYYADSVKGRFTISRDNAKNTVYLQMNSLKPEDTAVYYCARQYIRSSYGYWGQGTQVTVSS | low polyreactivity |
| QVQLVESGGGLVQAGGSLRLTCAASGTIFKRYAMRLYRQAPGKERELVATISSRGSCTNYADSLKGRFTISRDIAKNTVYLQMNSLKPQDTAVYYCASEVYRGDFWGQGTQVTVSS | high polyreactivity |
| QVQLVESGGGLVQAGGRLRLSCAASGSTLGYYTMGWYRQAPGKERELVAANTRSGGSTYYADSVKGRFTISRDNAKNTVYLQMNSLKPEDTAVYYCAAAWTRFRIYDYWGQVTQVTVSS | high polyreactivity |
| QVQLVESGGGLVQAGGSLRLSCAASGRTFLNNAMGWYRQAPGKERELVAAITKSGGSTYYADSVKGRFTISRDNAKNTVYLQMNSLKPEDTAVYYCAAARRYYTYYREDYYYWGQGTQVTVSS | high polyreactivity |
| QVQLVESGGGLVLAGGSLRLSCAASGSILYYNAMGWYRQAPVKERELVAAITLDGASTYYSDSVKGLFTISRDNAKNTVYLQMNSLKPEDTAGYYCAADYAYWLSGYDYWGQGSQVTVSS | low polyreactivity |
| QVQLVESGGGLVQAGGSLRLSCAASGRIFAGYAMGWYRQAPGKERELVAAISDGGTTNYADSVKGRFTISRDNAKNTVYLQMNSLKPEDTAVYYCAAKSRTYQSYYYWGQGTQVTVSS | low polyreactivity |
| QVQLVESGGGLVQAGGSLPLSCAASGSIFDKYTMGWYRQAPGKERELVAAISRDSGSTYYADSVKGRFTISRDNAKNTVYLQMNSLKPEDTAVYYCAARLGYYGYDYWGQGTQVTVSS | low polyreactivity |
| QVQLVESGGGLVQAGGSLRLSCAASGFIFPSYAMGWYRQAPGKERELVAAISWTGGTYYADSEKGRFTISRDNAKNTVYFQMNSRKPEDTAVYYCAVRYKRKGSGYRTNAYDYWGQGTQVTVSS | high polyreactivity |
| QVQLVESGGGLVQAGCSLRLSCDASGRIFVTNAMGWYRQAPGKERELVAANSYRGGRTYYADSVKGRFTISRDNAKNTVYLQMNSLKPEDTAVYYCNAVTRWPFDYWGQGTQVTVSS | high polyreactivity |
| QDQLVESGGGLVQAGGSLRLSCAASGSNLYRNAMGWSRQAPGKERELVAAITSRGGSTYADSVTGRFTISRDNAKNTVYLQMNSLKPEDTAVYYCAKGYLYRRPTVTHGYWGQGTQVTVSS | low polyreactivity |
